According to PMC8932913:

Molecular target: recombinant Hbl B’ of B. cereus strain F837/76 (Bacillus cereus strain F837/76)
Experiment: SPR; Biacore S200; rHbl B’ amine-coupled (350 RU) on a CM5 chip; rHbl L1, L2 or B injected at 7.8125 nM to 2 µM, 30 µl/min, 20°C; running buffer PBS, 1 mM DTT, 0.005% Tween 20; 1:1 binding model; three experiments

Substance: recombinant Hbl L1 (natural protein)
- Kd: 131 nM
